{"source": "paper doi:10.1101/2021.09.02.458808", "biological_target": "E2-E1 heterodimer of WT Sindbis virus (strain TE12) (Sindbis virus) (UniProt P03316)", "experiment": "cryo-EM structure", "data": [{"substance": "E2-E1 heterodimer of WT Sindbis virus (strain TE12) (from UniProt P03316 807-1245) (complex)", "values": [{"measurement": "stoichiometry N", "value": 3}]}]}
